Reference: paper PMC11401214, “A new generation of nanobody research tools using improved mass spectrometry-based discovery methods” (The Journal of Biological Chemistry, 2024)
Where a chain is given by its changes, count along the chain named.

Tests used:
Assay in all cases: SPR; Biacore 8K; antigen immobilised on CM5 chip by amine coupling at 1 ug/ml (tdTomato) or 5 ug/ml (GST, IgGs) in 10 mM sodium acetate pH 5.5; nanobody injected in single-cycle kinetics at 0.1-10 nM; 20 mM Na-Hepes pH 7.4, 150 mM NaCl, 0.05% Tween 20; Langmuir 1:1 model, RIgG-1 and GIgG-4 fit to a two-step binding model
Set-up in all cases: kon of step 1 (2-state binding model) / koff of step 1 (2-state binding model) / koff of step 2 (2-state binding model): unit not given here
rabbit IgG (rabbit) = biological target: rabbit IgG (rabbit)
goat IgG (goat) = biological target: goat IgG (goat)
mouse IgG (mouse) = biological target: mouse IgG (mouse)

B1: LaRIgG-1 (VHH)
VHH: QVQLAESGGGLVQPGGSLRLSCVVSGGTFGRYDMGWFRQAPGKEREFVAAISREVTTNYGDSVRGRFTISRDNAENTVHLLMNSLKPEDTAVYYCAADDAHRYSGTYYLSQDFRYTYWGQGTQVTVS
Work on B1 yielded a Kd (rabbit IgG (rabbit)) of 0.36 nM, a koff of step 1 (2-state binding model) (rabbit IgG (rabbit)) of 0.0034 and a koff of step 2 (2-state binding model) (rabbit IgG (rabbit)) of 0.00026. The kon of step 1 (2-state binding model) (rabbit IgG (rabbit)) was 890000 and the kon of step 2 (2-state binding model) (rabbit IgG (rabbit)) was 0.0026 s⁻¹.

B2: LaRIgG-2 (VHH)
VHH: QVQLVESGGGLVQAGGSLRLSCVASGGTFSDWPKGWFRQAPGKEREFVAAINWNGSGTTYADSVKGRFTISRDNAKNAVYLEMNSLKPEDTAVYSCASTFGGIRSVGTNDYWGRGTQVTVS
B2 gave a Kd (rabbit IgG (rabbit)) of under 0.014 nM.

B3: LaRIgG-7 (VHH)
VHH: DVQLVESGGGLVQTGGSLRLSCAASGRTFTTYDLAWFRQAPGKERECVAAVSRIGTTYYPDSVKGRFTISTDTAQNTVYLQMNSLKPEDTAVYYCASAKFGSRWIRAKTSEGNYDDWGRGTQVTVS
B3 gave a Kd (rabbit IgG (rabbit)) of 0.053 nM.

B4: LaGIgG-4 (VHH)
VHH: DVQLVESGGGLVQAGGSLRLSCAASGITFSRSTMGWHRQAPGKRRELVASINAVGSTNYVPSVKGRFTISRDNAKNTVTLQMNSLEPEDTGVYYCVSDPYDDPRRYWGPGTQVTVS
Binder B4 has a Kd (goat IgG (goat)) of 0.82 nM, a koff of step 1 (2-state binding model) (goat IgG (goat)) of 0.011 and a koff of step 2 (2-state binding model) (goat IgG (goat)) of 0.00033. The kon of step 1 (2-state binding model) (goat IgG (goat)) was 2.2e+06 and the kon of step 2 (2-state binding model) (goat IgG (goat)) was 0.0018 s⁻¹.

B5: LaGIgG-12 (VHH)
VHH: QVQLVESGGGLVQAGGSLRLSCSASGRTLSTYAMGWFRQAPGKEREFVAVISRSGGSTHYVESVKGRFTIVRDNAKNTVYLQMDSLKPEDTAVYYCAVPKYTDYALSPEDFGSWGQGTQVTVS
B5 showed a Kd (goat IgG (goat)) of 0.49 nM.

B6: LaMIgG-5 (VHH)
VHH: DVQLVESGGGSVQAGGSLRLSCAASGFIFSKDVMNWFRQAPGKERELVAFINPSGTTHYVDSVKGRFTISRDNVKSTVYLQMNDLKPDDTAVYYCQTRKFVGTTWRDYWGQGTQVTVS
B6 gave a Kd (mouse IgG (mouse)) of 0.42 nM.

B7: LaMIgG-8 (VHH)
VHH: QVQLVESGGGLVQAGGSLKLSCATSGFTFSTSVMNWFRQAPGKERDMVAFINPSGSTNYVDSVKGRFTISRDSTKNTVYLQMNSLKPEDTAVYYCQTRLLVDSGWRDYWGQGTQVTVS
Binder B7 has a Kd (mouse IgG (mouse)) of 1.2 nM.

B8: LaMIgG-9 (VHH)
VHH: QVQLVESGGGLVQAGGSLSLSCATSGRTGDLYAMAWFRQAPGAEREFVATVTAIGGATYYADSVKGRFTISASYARNMVYLQMNSLKPEDSAVYYCAASMKRVWPLHRSDEAEYWGQGTQVTVS
B8 showed a Kd (mouse IgG (mouse)) of 0.6 nM.

B9: LaMIgG-14 (VHH)
VHH: B7 VHH with K19R, T24A, D46E, N58H, T74A, M82L, L100F, D102G, S103A
B9 gave a Kd (mouse IgG (mouse)) of 0.21 nM.
